From FireProtDB (doi:10.1021/bi00462a019) come the findings set out here.

The conditions of this series: Aspergillus oryzae (strain ATCC 42149 / RIB 40), 25 °C, Fluorescence, reversible: yes, whole UniProt chain shown.

Where “and” joins values, the source holds several entries; their conditions need not be identical. Identical values can stand only once.

B1: Guanyl-specific ribonuclease T1 wild type, P00651 (protein)
chain: MMYSKLLTLTTLLLPTALALPSLVERACDYTCGSNCYSSSDVSTAQAAGYQLHEDGETVGSNSYPHKYNNYEGFDFSVSSPYYEWPILSSGDVYSGGSPGADRVVFNENNQLAGVITHTGASGNNFVECT
On to B1, for which the denaturant m value is 2.89 kcal/mol/M (pH 2.92, GdnHCl, formate 30 mM); 2.89 kcal/mol/M (pH 3.02, GdnHCl, formate 30 mM); 3.09 kcal/mol/M and 2.58 kcal/mol/M (pH 6.98, GdnHCl, MOPS 30 mM); 3.27 kcal/mol/M (pH 9.89, GdnHCl, glycine 30 mM); 2.58 kcal/mol/M (pH 9.91, GdnHCl, glycine 30 mM). Also, the “denaturant midpoint (higher = more stable)” value reads like this: (pH 2.92, GdnHCl, formate 30 mM) 2.78 M; (pH 3.02, GdnHCl, formate 30 mM) 1.8 M; (pH 6.98, GdnHCl, MOPS 30 mM) 2.99 M and 2.98 M; (pH 9.89, GdnHCl, glycine 30 mM) 2.57 M; (pH 9.91, GdnHCl, glycine 30 mM) 1.36 M. Also, the unfolding free energy is 8.04 kcal/mol (pH 2.92, GdnHCl, formate 30 mM); 6.2 kcal/mol (pH 2.92, Urea, formate 30 mM); 5.2 kcal/mol (pH 3.02, GdnHCl, formate 30 mM); 5.2 kcal/mol (pH 3.02, Urea, formate 30 mM); 9.24 kcal/mol and 7.7 kcal/mol (pH 6.98, GdnHCl, MOPS 30 mM); 8.4 kcal/mol (pH 9.89, GdnHCl, glycine 30 mM). Further, the unfolding free energy (pH 9.89, Urea, glycine 30 mM) is 8.6 kcal/mol and the unfolding free energy (pH 9.91, GdnHCl, glycine 30 mM) was determined as 3.52 kcal/mol.
